Where no end group is shown, it is not given here.
Biological target: tumor necrosis factor alpha (TNF-α) protein
Test: ELISA: plate coated with 2 µg/ml TNF-α, FITC-labeled peptide titrated, HRP anti-FITC antibody, OD 410 nm, fitted in GraphPad Prism 5

Sequence of tumor necrosis factor alpha (TNF-α) protein (chain, as listed by the source): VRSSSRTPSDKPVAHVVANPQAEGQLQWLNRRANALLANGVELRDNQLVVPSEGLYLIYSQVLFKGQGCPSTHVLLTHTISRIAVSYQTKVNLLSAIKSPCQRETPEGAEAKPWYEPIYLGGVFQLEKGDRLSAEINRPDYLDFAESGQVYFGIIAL

B1: peptide 632 (peptide)
peptide: HYIDFRW
modifications: also: FITC label, place not given here
notes: Chemically synthesized peptide; It was used in the ELISA as the FITC-labeled peptide; also called TNF-α antagonist peptide; antagonist peptide
Kd: 138 nM

From patent US20230192768A1 (published 2023)
